Laboratory results as given in patent US20240091368A1 (Bicycle, published 2024).
Numbered stars: 1 amine (or outer) side, 2 acyl side, 3 side chain; on linkers, the order of the positions; unused ones are H or OH. Bridge positions count the residues as written; N and C are the ends. Square brackets hold non-standard residues; d marks the D form. Ends that are not written are not given here. * marks the point of attachment. TATA = O=C(CC[*:1])N1CN(C(=O)CC[*:2])CN(C(=O)CC[*:3])C1; hArg = N=C(N)NCCCC[C@H](N)C(=O)O; Agb = N=C(N)NCC[C@H](N)C(=O)O; Pent4ynoyl = C#CCCC(=O)*

B1: BCY17346 (peptide)
peptide: ACNAVLCSWARANSFCA
modifications: linker 2-7-16 via TATA; also: trimer: each monomer C-terminus attached to hinge B (PEG23)
B2: BCY17345 (peptide)
peptide: ACNAVLCSWARANSFCA
modifications: linker 2-7-16 via TATA; also: dimer: each monomer attached at C-terminus to central hinge A (PEG23)
B3: BCY19147 (peptide)
peptide: Ac-CNAVLCSWA[hArg]ANSFCK(Pent4ynoyl)
modifications: linker 1-6-15 via TATA; also: trimer: each monomer attached at C-terminus to central hinge B (PEG23)
B4: BCY19148 (peptide)
peptide: Ac-CNAVLCSWA[hArg]ANSFCK(Pent4ynoyl)
modifications: linker 1-6-15 via TATA; also: tetramer: each monomer attached at C-terminus to central hinge C (PEG23)
B5: BCY17347 (peptide)
peptide: ACNAVLCSWARANSFCA
modifications: linker 2-7-16 via TATA; also: tetramer: each monomer attached at its C-terminus to central hinge moiety C (PEG23), further groups not given here
B6: BCY19071 (peptide)
peptide: Ac-CNSYTCYIKHILG[Agb]C
modifications: linker 1-6-15 via TATA; also: dimer: each monomer attached at C-terminus to central hinge A (PEG23)

Target: human ACE2 (angiotensin-converting enzyme 2) (human, UniProt Q9BYF1 18-805)
Experiment: cell-based or functional assay

human ACE2 (angiotensin-converting enzyme 2), sequence (Q9BYF1 18-805): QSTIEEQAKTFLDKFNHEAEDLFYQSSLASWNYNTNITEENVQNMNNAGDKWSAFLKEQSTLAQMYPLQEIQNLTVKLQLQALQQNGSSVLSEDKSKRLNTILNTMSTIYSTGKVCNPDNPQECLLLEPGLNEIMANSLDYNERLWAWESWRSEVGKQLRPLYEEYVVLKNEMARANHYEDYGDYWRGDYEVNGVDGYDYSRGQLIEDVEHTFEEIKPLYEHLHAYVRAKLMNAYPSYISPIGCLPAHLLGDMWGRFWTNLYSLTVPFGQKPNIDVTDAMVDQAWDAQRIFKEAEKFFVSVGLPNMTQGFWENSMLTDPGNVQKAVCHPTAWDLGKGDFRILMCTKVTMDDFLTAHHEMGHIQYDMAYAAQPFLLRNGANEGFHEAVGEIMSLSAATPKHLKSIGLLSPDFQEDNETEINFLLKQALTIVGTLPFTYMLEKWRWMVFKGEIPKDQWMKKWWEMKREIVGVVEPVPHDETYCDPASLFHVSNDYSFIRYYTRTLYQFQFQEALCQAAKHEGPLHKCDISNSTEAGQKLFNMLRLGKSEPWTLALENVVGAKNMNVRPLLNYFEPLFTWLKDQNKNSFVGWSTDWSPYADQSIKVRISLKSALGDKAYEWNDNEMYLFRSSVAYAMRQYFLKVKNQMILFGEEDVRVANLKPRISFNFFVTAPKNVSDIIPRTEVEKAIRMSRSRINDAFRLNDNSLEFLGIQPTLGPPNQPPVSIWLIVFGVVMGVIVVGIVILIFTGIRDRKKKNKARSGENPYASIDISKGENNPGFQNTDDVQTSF

Binder	Pseudoviral Neutralisation Assay, Geomean IC50
ACNAVLCSWARANSFCA (linker 2-7-16 via TATA) [BCY15429]	1280 nM
B1	12 nM
B2	6.96 nM
B3	17.7 nM
B4	10.1 nM
B5	3.75 nM
B6	24 nM
